The values that follow come from patent publication US20250312499A1 (RADIONETICS ONCOLOGY, published 2025).

Numbered stars: 1 amine (or outer) side, 2 acyl side, 3 side chain; on linkers, the order of the positions; unused ones are H or OH. Square brackets hold non-standard residues; d marks the D form. * marks the point of attachment. X2 = 4‑amino‑1‑((3-fluoro-4-methylbenzyl)glycyl)piperidine‑4‑carboxylic acid, Cc1ccc(CN(CC(=O)N2CCC(N[*:1])(C(=O)[*:2])CC2)[*:3])cc1F; X10 = 3‑(2-(2-(3-(4-iodophenyl)propanamido)ethoxy)ethoxy)propanoyl, O=C(CCc1ccc(I)cc1)NCCOCCOCCC(=O)*; DOTA = O=C(O)CN1CCN(CC(=O)O)CCN(CC(=O)*)CCN(CC(=O)O)CC1; Api(1-amidino) = N=C(N)N1CCC(N)(C(=O)O)CC1; 4Pal = N[C@@H](Cc1ccncc1)C(=O)O; d4Pal = N[C@H](Cc1ccncc1)C(=O)O; Ahx = NCCCCCC(=O)O; azaGly = NNC(=O)O

The target in the experiment is T1, human kisspeptin receptor (KISS1R) (human, UniProt Q969F8 1-398).
T1 construct: whole, on cells; Assayed as crude membrane fractions of tetracycline-induced Flp-In T-Rex 293 cells expressing the receptor; also called GPR54; hKiSSR
T1 sequence (Q969F8 whole entry): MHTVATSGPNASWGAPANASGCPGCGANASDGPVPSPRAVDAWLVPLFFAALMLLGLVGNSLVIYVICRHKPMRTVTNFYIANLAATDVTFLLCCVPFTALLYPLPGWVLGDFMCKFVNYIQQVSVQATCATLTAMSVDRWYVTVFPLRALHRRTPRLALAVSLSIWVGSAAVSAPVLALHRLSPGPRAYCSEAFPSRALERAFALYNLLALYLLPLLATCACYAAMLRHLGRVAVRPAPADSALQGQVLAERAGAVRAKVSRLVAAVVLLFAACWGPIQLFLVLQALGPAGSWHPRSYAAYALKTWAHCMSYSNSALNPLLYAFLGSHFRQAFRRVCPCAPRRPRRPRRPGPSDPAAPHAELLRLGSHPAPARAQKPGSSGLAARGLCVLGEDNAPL
The experiment can be described thus: radioligand competition, hKISS1R membranes; legend: A is <10 nM. Here is the method:
The cells are grown to 85-100% confluence on standard tissue culture dishes in Dulbecco's Modified Eagles Medium (DMEM) (Corning) supplemented with 10% FBS (Gemini), 1% penicillin-streptomycin-glutamine (Gibco), 500 μg/mL hygromycin, and 15 μg/mL blastacidin. 48 hrs prior to preparing membranes 10 μg/ml of tetracycline is added to the culture media to induce receptor expression. To prepare membranes, cells are scraped and collected in 1× Dulbecco's phosphate buffered saline (Corning) and then pelleted at 1000 RPMs. The cell pellet is reconstituted in membrane preparation buffer (20 mM HEPES, 6 mM MgCl₂ and 1 mM EGTA, protease inhibitor tablets (Pierce), pH 7.4) and placed in a cell disruption vessel (Parr Instrument company) at 1000 PSI for 30 min on ice. The pressurized contents are then released and spun down at 1000 RPMs and the supernatant is collected and further centrifuged at 15,000 RPMs to pellet the membranes. The membrane pellet is resuspended in membrane preparation buffer, snap frozen and stored at −80° C. for later use.
Assay contents are then filtered through unifilter CF/C: microplates (PerkinElmer) pre-soaked with 0.5% BSA and washed with 9×400 μL of cold wash buffer (10 mM HEPES, 500 mM NaCl, 0.1% Tween-20, pH7.4). Assay plates are read using a Microbeta² (PerkinElmer) and Ki values for compounds are determined using a GraphPad Prism 9.3 non-linear regression analysis.
On the technique in general: Loss of bound radioactivity is the signal in a displacement assay; it reports binding, not function.
Molecule {DOTA}-G[dY][d4Pal]NTF[azaGly]L[X2]Y-NH2 (also: nonradioactive indium(III) chelated by DOTA, also called 193-In) [Indium complex of Compound 193] displayed a Ki below 10 nM.

Consider {DOTA-Ahx}-[dY][dW]NTF[azaGly]L[X2]W-NH2 (also: nonradioactive gallium(III) chelated by DOTA, also called 1-Ga) [Ga Complex of Compound 1], for which the Ki is below 10 nM.

Consider {DOTA-Ahx}-[dY][dW]NTF[azaGly]L[X2]W-NH2 (also: lutetium(III) chelated by DOTA, also called 1-Lu) [Lu Complex of Compound 1], for which the Ki was below 10 nM.

The molecule {DOTA-Ahx}-[dY][dW]NTF[azaGly]L[X2]W-NH2 (also: nonradioactive indium(III) chelated by DOTA, also called 1-In) [In Complex of Compound 1] showed a Ki below 10 nM.

In turn, {DOTA-Ahx}-[dY][dW]NTF[azaGly]L[X2][4Pal]-NH2 (also: nonradioactive indium(III) chelated by DOTA, also called 105-In) [In Complex of Compound 105] had a Ki below 10 nM.

Turning to {DOTA-Ahx}-[dY][dW]NTF[azaGly]L[Api(1-amidino)]W-NH2 (also: nonradioactive indium(III) chelated by DOTA, also called 6-In) [In Complex of Compound 6], the Ki was below 10 nM.

Consider {DOTA-Ahx}-F[azaGly]L[X2]W-NH2 (also: nonradioactive indium(III) chelated by DOTA, also called 2-In) [In Complex of Compound 2], for which the inhibition constant (Ki) was below 10 nM.

On to X10-[dY]K(DOTA)NTF[azaGly]L[Api(1-amidino)]W-NH2 (also: indium(III) chelated by DOTA on Lys, also called 196-In) [In Complex of Compound 196], for which the Ki is below 10 nM.

By Ki is commonly meant a measure of affinity in units of concentration, obtained from inhibition or displacement. Read a low Ki as a stronger hold on the target.
